Measurements taken from patent US20160158293A1, “Treatment of Ocular Conditions Using Progenitor Cells” (JANSSEN BIOTECH, INC., priority 2014, published 2016).

B1: Nogo-A: myelin protein Nogo-A (R&D Systems), growth-inhibiting coating (protein, UniProt Q9NQC3 1-1192, looked up)
Reticulon-4: MEDLDQSPLVSSSDSPPRPQPAFKYQFVREPEDEEEEEEEEEEDEDEDLEELEVLERKPAAGLSAAPVPTAPAAGAPLMDFGNDFVPPAPRGPLPAAPPVAPERQPSWDPSPVSSTVPAPSPLSAAAVSPSKLPEDDEPPARPPPPPPASVSPQAEPVWTPPAPAPAAPPSTPAAPKRRGSSGSVDETLFALPAASEPVIRSSAENMDLKEQPGNTISAGQEDFPSVLLETAASLPSLSPLSAASFKEHEYLGNLSTVLPTEGTLQENVSEASKEVSEKAKTLLIDRDLTEFSELEYSEMGSSFSVSPKAESAVIVANPREEIIVKNKDEEEKLVSNNILHNQQELPTALTKLVKEDEVVSSEKAKDSFNEKRVAVEAPMREEYADFKPFERVWEVKDSKEDSDMLAAGGKIESNLESKVDKKCFADSLEQTNHEKDSESSNDDTSFPSTPEGIKDRSGAYITCAPFNPAATESIATNIFPLLGDPTSENKTDEKKIEEKKAQIVTEKNTSTKTSNPFLVAAQDSETDYVTTDNLTKVTEEVVANMPEGLTPDLVQEACESELNEVTGTKIAYETKMDLVQTSEVMQESLYPAAQLCPSFEESEATPSPVLPDIVMEAPLNSAVPSAGASVIQPSSSPLEASSVNYESIKHEPENPPPYEEAMSVSLKKVSGIKEEIKEPENINAALQETEAPYISIACDLIKETKLSAEPAPDFSDYSEMAKVEQPVPDHSELVEDSSPDSEPVDLFSDDSIPDVPQKQDETVMLVKESLTETSFESMIEYENKEKLSALPPEGGKPYLESFKLSLDNTKDTLLPDEVSTLSKKEKIPLQMEELSTAVYSNDDLFISKEAQIRETETFSDSSPIEIIDEFPTLISSKTDSFSKLAREYTDLEVSHKSEIANAPDGAGSLPCTELPHDLSLKNIQPKVEEKISFSDDFSKNGSATSKVLLLPPDVSALATQAEIESIVKPKVLVKEAEKKLPSDTEKEDRSPSAIFSAELSKTSVVDLLYWRDIKKTGVVFGASLFLLLSLTVFSIVSVTAYIALALLSVTISFRIYKGVIQAIQKSDEGHPFRAYLESEVAISEELVQKYSNSALGHVNCTIKELRRLFLVDDLVDSLKFAVLMWVFTYVGALFNGLTLLILALISLFSVPVIYERHQAQIDHYLGLANKNVKDAMAKIQAKIPGLKRKAE

How the values were obtained:
[1] = tested on: retinal ganglion cells (RGCs); test: Synapse assay: co-localized Bassoon/Homer synaptic puncta by immunocytochemistry; assay type: cell-based, Sprague-Dawley rat; settings: 32 μM GBP added together with UCM
Text: (§1) Retinal Ganglion Cells: Retinal ganglion cells (RGCs) were purified by sequential immuno-panning from P7 (postnatal day 7) Sprague-Dawley rat retinas (Charles River, Wilmington, Mass.) of either sex as previously described (Winzeler A, Wang J T., Cold Spring Harbor Protocols, 2013; 643-652). Briefly, retinas were dissected and dissociated with papain (6 U/mL, Worthington, Burlingame, Calif.). Dissociated cells were panned first with Bandeiraea Simplicifolia Lectin I (BSL, Vector laboratories, Burlingame, Calif.) coated petri dishes to remove immune cells, cell debris and fibroblasts. The unbound cells were transferred to a petri dish coated with anti-Thy1 (clone T11D7) antibody for specific isolation of RGCs. The purified RGCs were gently trypsinized and re-plated onto poly-D-Lysine (PDL) and laminin-coated glass coverslips in 24-well plates (35,000 cells/coverslip). […]
Synapse formation was assessed by immunocytological analyses of the co-localization of pre-(Bassoon) and post-synaptic (Homer) markers, and electrophysiology. […] Morphologically healthy single cells that were at least two cell diameters from their nearest neighbor were identified randomly by DAPI fluorescence. […]

[2] = tested on: retinal ganglion cells (RGCs); test: Neurite outgrowth assay under growth-inhibiting conditions (CSPG, Nogo-A, MBP); assay type: cell-based, Sprague-Dawley rat
Text: as §1, with “RGCs.” for “RGCs. The purified RGCs were gently trypsinized and re-plated onto poly-D-Lysine (PDL) and laminin-coated glass coverslips in 24-well plates (35,000 cells/coverslip).”
To test neurite outgrowth under pathologic (i.e. growth-inhibiting) culture conditions, the RGCs (1,500 cells/coverslip) were seeded onto coverslips that were coated with various concentrations of chondroitin sulfate proteoglycan (CSPG, EMD Millipore, Billerica, Mass.), Nogo-A (R&D Systems, Minneapolis, Minn.) or in the presence of soluble myelin basic protein (MBP, 10 ug/mL, Sigma-Aldrich, St. Louis, Mo.). […] At least 30 cells per condition were imaged and analyzed per experiment and the results presented are the average of 2-3 independent experiments. Neuronal morphology was analyzed using neurite outgrowth application module in Metamorph software (Molecular Devices). […]

Molecule	UCM-induced synapse formation in the presence of gabapentin [1]	neurite growth inhibited ([2]; at 2 μg/cm^2 coating)	coating concentration from which neurite outgrowth is hindered/blocked ([2]; coated coverslips) [μg/cm^2]
NCC1(CC(=O)O)CCCCC1 [GBP, Gabapentin]	blocked the synaptogenic factors		
B1		more than 50%	1
